Molecular target: the molecule itself
Test: western blot (band sizes); recombinant GNG5 (purity >95%) used to assess anti-GNG5 antibodies (Fig. S3B)

B1: recombinant GNG5 (G protein subunit gamma 5) (natural protein, UniProt P63218 1-68, looked up)
chain: MSGSSSVAAMKKVVQQLRLEAGLNRVKVSQAAADLKQFCLQNAQHDPLLTGVSSSTNPFRPQKVCSFL
notes: G protein subunit gamma 5 (GNG5); Purity >95% is stated; also called purified GNG5; homotrimer-GNG5; source: E. coli BL21 (DE3), purified (HisTrap HP, PD-10)
With B1 the “stoichiometry N” value was 3.
